Usually stoichiometry N stands for a count of units in the complex or per binding partner. Usually Kd stands for the concentration at which binding is half-saturated.

Assay in all cases: ITC
The target in test [1] is T1, H.s. GLRX5 lacking the first 31 amino acids (Δ1-31) (human, UniProt Q86SX6 32-157).
T1 sequence (looked up): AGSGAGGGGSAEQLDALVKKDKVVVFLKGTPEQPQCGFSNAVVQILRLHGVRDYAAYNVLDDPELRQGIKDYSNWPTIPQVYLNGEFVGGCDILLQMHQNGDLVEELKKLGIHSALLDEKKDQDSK

Test [2] deals with S.c. Grx3 (residues 36-285, Trx-like and Grx-like domains) (S. cerevisiae).
For test [3] the target is unchanged. This is another data set of the same source.

Read-outs that look alike come from different tables or passages of the source.

B1: human BOLA3 (residues 25-107, lacking the mitochondrial targeting sequence) (natural protein, UniProt Q53S33 25-107, looked up)
chain: MFATQTEGELRVTQILKEKFPRATAIKVTDISGGCGAMYEIKIESEEFKEKRTVQQHQMVNQALKEEIKEMHGLRIFTSVPKR
Take B1: in test [1], the Ka was determined as 120000 M⁻¹, the dH is -0.518 ± 0.0342 kcal/mol and the “stoichiometry N” value turned out to be 1.02 ± 0.05. In test [2], this molecule registered a Kd of 6.7 µM and a stoichiometry N of 0.94. In test [3], this molecule displayed a Ka of 150000 M⁻¹, a dH of -0.787 kcal/mol and a stoichiometry N of 0.98.

For the origin of these results see PMC6146392 (Metallomics : integrated biometal science, 2018).
